Experimental data as given in PMC9482650 (Nature Communications, 2022).
Square brackets hold non-standard residues; d marks the D form. Ends that are not written are not given here. * marks the point of attachment. Biotin = O=C1N[C@H]2[C@H](CS[C@H]2CCCCC(=O)*)N1; pS = N[C@@H](COP(=O)(O)O)C(=O)O

How the values were obtained:
[1] = molecular target: T1, HTLV1 Tax1 PBM (HTLV1, also: biotin attached via linker (not given here)); experiment: holdup assay
T1 chain: Biotin-SEKHFRETEV-OH

[2] = molecular target: T2, RPS6KA1 PBM (human, also: biotin via linker: TTDS, Ahx or Ado-Ado); experiment: holdup assay; biotinylated PBM peptide saturating streptavidin resin, His6-MBP-PDZ (4 µM) in solution, 15 min at room temperature, no washing, filtration; 50 mM TRIS pH 7.5, 300 mM NaCl, 1 mM TCEP; binding intensity converted to a steady-state Kd given as pKd; PDZ in bacterial lysate (LYSC), single (SAPF) or double (DAPF) affinity purified, which one for a given pair is not given
T2 chain: Biotin-RVRKLPSTTL-OH

[3] = molecular target: T3, p-3 phosphorylated RPS6KA1 PBM (human, not fully specified (N-terminus); also: N-terminal linker between biotin and peptide, type not given here); experiment: as above
T3 chain: RVRKLP[pS]TTL-OH

B1: His6-MBP-SYNJ2BP PDZ (domain or fragment, human, UniProt P57105 13-100, looked up)
chain: EINLTRGPSGLGFNIVGGTDQQYVSNDSGIYVSRIKENGAAALDGRLQEGDKILSVNGQDLKNLLHQDAVDLFRNAGYAVSLRVQHRL
- pKd [1]: 6.04 pKd (-log10 of Kd in M)
- pKd [2]: 3.82 pKd (-log10 of Kd in M)
- pKd [3]: 4.48 pKd (-log10 of Kd in M)
